# Results from US20190100598A1 (CELLDEX THERAPEUTICS, published 2019).
# B1: antibody 37M (antibody, V domains shown)
# VH: QVQLKQSGAELVRPGASVKLSCKASGYTFTDYYINWVKQRPGQGLEWIARIYPGSGNTYYNEKFKGKATLTAEKSSSTAYMQLSSLTSEDSAVYFCARGVYYFDYWGQGTTLTVSS
# VL: DIVMTQSQKFMSTSVGDRVSVTCKASQNVRTNVAWYQQKPGQSPKALIYSASYRYSGVPDRFTGSGSGTDFTLTISNVQSEDLADYFCQQYNSYPRTFGGGTKLEIKR
# notes: also called anti-KIT antibody 37M; 37M antibody
# Experiments:
# [1] = biological target: full-length, wild-type human KIT (human, UniProt P10721 26-976); assay: cell-based or functional assay
# [2] = biological target: T1, recombinant D5 domain polypeptide of human KIT (N410 to H515, with 5xHis tag) (human, UniProt P10721 26-519); assay: solid phase ELISA, D5 antigen coated on the plate
# T1 construct: The end residue 144 was computed (33 + 106 + 5); also called D5 region; D5 domain of human KIT
# [3] = biological target: T2, recombinant D4 domain polypeptide of human KIT (V308 to K412, with 6xHis tag) (human, UniProt P10721 26-412); assay: solid phase ELISA, antigen coated on plate; D4 region alone
# T2 construct: The end residue 144 was computed (33 + 105 + 6); also called D4 region; D4 domain of human KIT
# [4] = biological target: T3, recombinant KIT D4/D5 polypeptide (D4/D5 region of human KIT, V308 to H515, with 5xHis tag) (human, UniProt P10721 26-519); assay: competition solid phase ELISA on KIT D4/D5 antigen; reference 37M titrated with competitor antibody 37C at 10 nM
# T3 construct: The end residue 246 was computed from the stated composition (33 + 208 + 5); This is the glycosylated (untreated) form; also called KIT D4/D5 antigen; KIT immunogen
# [5] = biological target: T3, recombinant KIT D4/D5 polypeptide …; assay: competition solid phase ELISA on KIT D4/D5 antigen; reference 37M titrated alone, no competitor
# full-length, wild-type human KIT, sequence (P10721 other isoform, or with tags, fused parts or gaps limits assumed): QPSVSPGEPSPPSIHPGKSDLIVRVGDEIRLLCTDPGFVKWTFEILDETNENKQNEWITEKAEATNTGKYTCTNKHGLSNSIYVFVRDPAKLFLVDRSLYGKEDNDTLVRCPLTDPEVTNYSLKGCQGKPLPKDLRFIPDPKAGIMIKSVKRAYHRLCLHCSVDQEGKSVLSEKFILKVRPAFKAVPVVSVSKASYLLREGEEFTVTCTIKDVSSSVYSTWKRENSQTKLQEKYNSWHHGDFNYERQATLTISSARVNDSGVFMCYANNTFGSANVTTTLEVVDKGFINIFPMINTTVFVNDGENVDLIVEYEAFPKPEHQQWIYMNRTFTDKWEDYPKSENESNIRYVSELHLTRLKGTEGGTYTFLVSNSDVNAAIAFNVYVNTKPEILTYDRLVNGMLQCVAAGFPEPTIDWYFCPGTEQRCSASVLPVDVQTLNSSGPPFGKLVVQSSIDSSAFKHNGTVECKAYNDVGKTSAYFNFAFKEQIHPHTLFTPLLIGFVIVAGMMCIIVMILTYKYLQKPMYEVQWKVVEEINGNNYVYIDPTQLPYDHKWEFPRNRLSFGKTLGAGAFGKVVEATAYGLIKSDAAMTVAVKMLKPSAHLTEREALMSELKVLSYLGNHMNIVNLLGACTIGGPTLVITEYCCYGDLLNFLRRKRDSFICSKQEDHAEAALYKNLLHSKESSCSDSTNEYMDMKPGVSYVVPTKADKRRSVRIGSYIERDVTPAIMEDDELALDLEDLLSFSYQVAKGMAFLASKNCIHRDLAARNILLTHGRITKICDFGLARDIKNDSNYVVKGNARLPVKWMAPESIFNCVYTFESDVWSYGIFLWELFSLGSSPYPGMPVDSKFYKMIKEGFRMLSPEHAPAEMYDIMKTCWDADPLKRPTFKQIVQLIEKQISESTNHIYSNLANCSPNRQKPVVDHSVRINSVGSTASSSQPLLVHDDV
# T3 sequence (P10721 other isoform, or with tags, fused parts or gaps): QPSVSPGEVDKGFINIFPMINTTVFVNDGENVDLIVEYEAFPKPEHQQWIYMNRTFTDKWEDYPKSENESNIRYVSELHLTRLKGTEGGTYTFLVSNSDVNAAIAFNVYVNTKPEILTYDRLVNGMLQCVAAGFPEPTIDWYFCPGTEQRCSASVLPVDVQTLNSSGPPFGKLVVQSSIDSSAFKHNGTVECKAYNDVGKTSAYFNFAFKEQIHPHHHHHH
# T2 sequence (P10721 other isoform, or with tags, fused parts or gaps): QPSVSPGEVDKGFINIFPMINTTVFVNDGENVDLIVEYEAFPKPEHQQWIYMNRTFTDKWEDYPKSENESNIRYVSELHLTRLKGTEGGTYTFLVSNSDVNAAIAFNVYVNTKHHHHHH
# T1 sequence (P10721 other isoform, or with tags, fused parts or gaps): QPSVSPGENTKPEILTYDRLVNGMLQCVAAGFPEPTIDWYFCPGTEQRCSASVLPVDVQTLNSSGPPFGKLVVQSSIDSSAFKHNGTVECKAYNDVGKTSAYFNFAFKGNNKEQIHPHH
binder,measurement,setting,value
B1,"50% inhibition concentration (IC50) of SCF-induced KIT tyrosine phosphorylation, cell-based phospho-KIT assay, CHO/KIT-WT cells",[1],~0.109 nM
same,"IC50 of SCF-induced AKT phosphorylation (phospho-AKT assay), sorted CHO/KIT-WT cells",[1],~0.138 nM
same,"IC50 of SCF-induced KIT tyrosine phosphorylation, separate experiment (FIG. 11A), CHO/KIT-WT cells",[1],~0.096 nM
same,EC50,[2],> 3000 nM
same,EC50,[3],~0.572 nM
same,EC50,[4],2.8 nM
same,EC50,[5],0.115 nM
